Target: PP2A A-C hetero-dimer (bovine brain, unmethylated) (UniProt Q32PI5)
Sequence (Q32PI5 2-589, chain 1 of 2): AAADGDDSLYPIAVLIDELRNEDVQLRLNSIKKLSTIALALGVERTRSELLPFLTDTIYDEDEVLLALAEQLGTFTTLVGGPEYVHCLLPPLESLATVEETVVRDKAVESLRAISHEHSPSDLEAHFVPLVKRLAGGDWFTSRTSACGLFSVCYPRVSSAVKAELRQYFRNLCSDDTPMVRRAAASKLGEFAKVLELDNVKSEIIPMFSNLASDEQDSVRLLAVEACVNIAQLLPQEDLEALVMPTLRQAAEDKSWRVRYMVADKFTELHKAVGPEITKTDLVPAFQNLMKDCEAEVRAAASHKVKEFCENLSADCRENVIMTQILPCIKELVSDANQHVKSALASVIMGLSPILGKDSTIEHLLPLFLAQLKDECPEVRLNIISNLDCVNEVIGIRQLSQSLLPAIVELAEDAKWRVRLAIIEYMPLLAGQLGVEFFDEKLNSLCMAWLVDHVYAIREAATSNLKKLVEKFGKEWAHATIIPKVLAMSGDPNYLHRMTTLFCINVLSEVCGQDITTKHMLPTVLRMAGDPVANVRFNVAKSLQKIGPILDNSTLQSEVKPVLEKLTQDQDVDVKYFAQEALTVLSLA
Sequence (chain, as listed by the source, chain 2 of 2): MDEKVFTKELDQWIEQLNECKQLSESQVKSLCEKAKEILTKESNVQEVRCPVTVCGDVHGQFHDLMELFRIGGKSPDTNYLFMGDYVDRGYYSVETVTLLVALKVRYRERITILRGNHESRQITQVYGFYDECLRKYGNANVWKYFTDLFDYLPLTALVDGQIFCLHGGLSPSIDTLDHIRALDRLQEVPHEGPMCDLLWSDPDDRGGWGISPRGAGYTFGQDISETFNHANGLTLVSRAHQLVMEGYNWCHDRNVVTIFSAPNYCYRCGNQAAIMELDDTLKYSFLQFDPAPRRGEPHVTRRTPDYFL

PMTΔ19 (human PP2A methyl transferase with the N-terminal 19 residues truncated)
enzyme activity (in vitro enzymatic assay, FIG. 7): Truncation of the N-terminal 19 amino acids did not appear to have any effect on the enzyme activity
